Laboratory results taken from patent publication US20110207656A1 (Dana-Farber, published 2011).
Ends that are not written are not given here.

Target: T1, purified FADD protein (human, UniProt Q13158 1-208, limits assumed)
T1 sequence: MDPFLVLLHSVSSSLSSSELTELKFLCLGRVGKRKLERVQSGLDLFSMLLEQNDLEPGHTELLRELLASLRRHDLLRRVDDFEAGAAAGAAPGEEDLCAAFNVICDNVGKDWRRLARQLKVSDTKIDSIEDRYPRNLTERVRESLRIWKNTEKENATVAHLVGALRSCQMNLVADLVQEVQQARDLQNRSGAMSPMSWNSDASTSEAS
Experiment: GST pull-down of purified FADD, anti-FADD immunoblot
Protocol: In vitro binding assays. Purified GST, GST-MUC1-CD(1-72), GST-MUC1-CD deletion mutants, GST-caspase-8, GST-caspase-8 deletion mutants, GST-FADD, GST-N-FADD and GST-C-FADD protein (36) were purified from E. coli (BL21 DE3) and immobilized on glutathione-agarose beads (Pierce). His-MUC1-CD(1-72) and His-caspase-8 deletion mutant proteins were purified on Ni-NTA beads (Qiagen, Valencia, Calif.). GST and GST fusion proteins bound to glutathione beads were incubated with purified soluble proteins for 2 hours at 4° C., and washed. Adsorbates bound to the beads were analyzed by solubilizing the protein/bead mixture in Laemli buffer following by sodium dodecyl sulfate polyacrylamide gel electrophoresis (SDS-PAGE) and immunoblotting. For competition studies, GST-caspase-8 DED protein bound to FADD was incubated with increasing amounts of MUC1-CD protein. Precipitated proteins were subjected to SDS-PAGE and immunoblot analysis. In certain studies, binding was performed in the presence of a synthetic peptide ([…]) (SEQ ID NO:3) derived from amino acids 1-20 from MUC1-CD (Molecular Biology Core Facility, Dana-Farber Cancer Institute).

B1: GST-MUC1-CD(1-45) (other)
chain: {GST}-CQCRRKNYGQLDIFPARDTYHPMSEYPTYHTHGRYVPPSSTDRSP
modifications: cysteine pairing not given here; also: linker to GST not given here
notes: also called GST-MUC1-CD deletion mutant; not shown: GST fusion partner at the N end, and any linker to it
binding result: no binding
